The supplement of paper PMC10126150
± gives the standard deviation of the averaged measurements.

Tested on: ATP
Assay: switch fluorescence ratio, 500 uM ATP over buffer (Cy3 cluster intensity, sum of 5 cycles each) (fold (ratio)); higher = stronger signal-on switching upon ATP binding; sequences stand for … in TCGTCGGCAGCGTCAGATGTGTATAAGAGACAGTTTTTTTTTTTTTTTTTTTTTTTTT…TC
Conditions: aptamer strand: ATP DNA aptamer (quencher-CACCTGGGGGAGTATTGCGGAGGAAGG + anchor), 100 nM annealed; ATP concentration: 500 uM
Outline: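 Cy3-labelled switching-strand clusters on a modified Illumina MiSeq flow-cell were annealed to 100 nM quencher-labelled ATP aptamer, imaged in selection buffer, then imaged after 15 min with 500 uM ATP at 22 °C. Five buffer/ATP cycles ran, with NaOH stripping and re-annealing between them. The fluorescence ratio is summed target-cycle over summed buffer-cycle Cy3 intensity per cluster, averaged per switch-domain sequence. Clusters outside 100-1000 RFU were excluded.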
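Further: ATP exposure 15 min at 22 °C before imaging.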

| Sequence | switch fluorescence ratio |
| --- | --- |
| ACCCGTAAGA | 1.22 ± 0.093 |
| CATAGTGATC | 1.051 ± 0.0011 |
| GCCCTTAGCG | 1.06 ± 0.073 |
| TTTAGGGAGG | 0.974 ± 0.026 |
| AGAGTGCGTA | 0.989 ± 0.023 |
| AGTAGGAGT | 0.998 ± 0.033 |
| AAAATTAGTT | 1.03 ± 0.012 |
| GGCGCGTCCA | 0.994 ± 0.013 |
| TCTATCAGTG | 1.02 ± 0.018 |
| TATTCAGATA | 0.9773 ± 0.008 |
| ATGTTATTA | 0.975 ± 0.021 |
| GGCCGTATGT | 1.01 ± 0.011 |
| ATAGGCGGAG | 0.965 ± 0.02 |
| TCAGCCGTTT | 1.05 ± 0.054 |
| AGGATGGGG | 0.9741 ± 0.0069 |
| CGAAGATCGG | 1 ± 0.023 |
| ACCCAGCATC | 1.49 ± 0.025 |
| TAGGTTGCGA | 0.996 ± 0.021 |
| ACCGGATGG | 1.03 ± 0.027 |
| TTTCTTTCTT | 1.05 ± 0.083 |
| AAGTTCCTTC | 1.05 ± 0.036 |
| GGGCTGCCGA | 1.03 ± 0.021 |
| GCCGTTATGG | 1.02 ± 0.053 |

| Sequence | switch fluorescence ratio |
| --- | --- |
| TGGGGGTGTC | 1.03 ± 0.024 |
| GCCGGGGTTA | 0.9966 ± 0.0088 |
| TTTAATATTA | 0.986 ± 0.015 |
| TAACGGAGGT | 1.02 ± 0.014 |
| ATATATATCG | 1.01 ± 0.0093 |
| ACACAAGGTC | 1.03 ± 0.041 |
| CATATCTAGG | 0.997 ± 0.025 |
| TAAGCGAGTG | 0.9832 ± 0.0032 |
| TGTAAGACCC | 1.06 ± 0.033 |
| CGTTTTTTCT | 0.974 ± 0.015 |
| TGGGTCATTG | 0.973 ± 0.043 |
| AATGAGAGTT | 0.9909 ± 0.0011 |
| TTAATCTGGG | 0.992 ± 0.016 |
| GTAGCTGCGG | 1.02 ± 0.038 |
| TCTTTACCGA | 1.02 ± 0.036 |
| GTGTTTAGGG | 0.999 ± 0.021 |
| CTAATTAGAT | 1 ± 0.022 |
| TTCGTATAGC | 1.03 ± 0.036 |
| ATGTAGGGTC | 1.02 ± 0.02 |
| TGTGTCTGTT | 0.9933 ± 0.0025 |
| TCTATTAAGG | 1 ± 0.013 |
| CAGGAGGGGG | 0.992 ± 0.053 |
| GGGCGACTGT | 0.978 ± 0.023 |

| Sequence | switch fluorescence ratio |
| --- | --- |
| AGGGAGAGAG | 0.997 ± 0.022 |
| GGGAGGCCGG | 1 ± 0.036 |
| CGCGGGGGGT | 0.992 ± 0.018 |
| ATTAGAGTGT | 0.965 ± 0.04 |
| ATCTAATTAG | 0.963 ± 0.045 |
| TGCCCGAGCT | 1.03 ± 0.1 |
| TTCGCTGTTC | 1.28 ± 0.027 |
| TGATAGTCTA | 1 ± 0.068 |
| GCAAGGGCTA | 1.04 ± 0.045 |
| GTGTAAATCT | 1.036 ± 0.0046 |
| TCATTGATTG | 0.999 ± 0.022 |
| TGGTGTCAGT | 0.977 ± 0.022 |
| TACTGTTTTT | 0.9832 ± 0.0056 |
| CTTATTAGGC | 1.05 ± 0.042 |
| TGGGAATGAC | 2.01 ± 1.4 |
| CATGGATACG | 1.01 ± 0.021 |
| TTAGAATTAA | 0.9724 ± 0.0063 |
| TTTGAAGCCG | 0.989 ± 0.024 |
| TGGGGGCGTC | 1.02 ± 0.036 |
| TTCCGGGCCG | 1.03 ± 0.037 |
| GATTACGGCC | 1.06 ± 0.035 |
| TGTTGCAGAG | 1.03 ± 0.049 |
| TTACAAAATA | 1.03 ± 0.048 |

| Sequence | switch fluorescence ratio |
| --- | --- |
| TGGTGTCAAT | 1 ± 0.017 |
| GTTTAATTTG | 1 ± 0.025 |
| TTCGTAGGCA | 1.02 ± 0.042 |
| TTTTGATAAC | 0.97 ± 0.036 |
| AAAAGCTTTT | 0.988 ± 0.034 |
| TTGCTTTGTG | 1 ± 0.042 |
| TGATTCTTAG | 0.989 ± 0.023 |
| GGCATCATGT | 1.012 ± 0.0039 |
| TGGGTTTGGG | 0.984 ± 0.035 |
| ATCTAGGGTG | 1.08 ± 0.012 |
| GTAGGGTAAG | 0.988 ± 0.039 |
| TTCGTAAGTT | 0.99485 ± 0.00084 |
| GTATCTTGGG | 1.04 ± 0.042 |
| TTCATGTCAT | 1.01 ± 0.081 |
| AGTAGCATTC | 1.724 ± 0.013 |
| AGGGCATTCA | 1.02 ± 0.046 |
| ATAGGTCTTA | 0.983 ± 0.04 |
| ATCACTAGGA | 1.04 ± 0.037 |
| TTTTTTAATG | 1 ± 0.033 |
| GGATTGTCTT | 1 ± 0.0014 |
| CAAGAGTGC | 1.025 ± 0.0091 |
| CCCATGTGAG | 1.09 ± 0.022 |
| CTTGAATTTT | 0.988 ± 0.049 |

| Sequence | switch fluorescence ratio |
| --- | --- |
| CGTAGGGGTG | 0.969 ± 0.014 |
| TTGCCGCACG | 1.15 ± 0.024 |
| CGCTCGTATT | 1.019 ± 0.009 |
| TTATTTTTTG | 1 ± 0.056 |
| GGGATTGGAT | 0.967 ± 0.037 |
| TGAAACAGGT | 1.001 ± 0.0032 |
| TGACTGTGTG | 0.984 ± 0.017 |
| CGGAGTGCTT | 1.03 ± 0.021 |
| GCGTTAACGC | 0.9731 ± 0.0096 |
| CCACCATATT | 1.07 ± 0.039 |
| ACACGTGCTA | 1.01 ± 0.024 |
| TATCGCCGAA | 0.997 ± 0.037 |
| GCAGCCATAA | 2.27 ± 0.16 |
| GATGAGAGGG | 1.002 ± 0.0059 |
| AGTAGCGGTC | 1.02 ± 0.057 |
| AGGGAACCCT | 1.13 ± 0.03 |
| AAGCTCCTCT | 1.03 ± 0.032 |
| TGATAAAAAT | 0.993 ± 0.027 |
| ACCCAGTGAA | 1.24 ± 0.016 |
| ATTCGTTAGA | 0.999 ± 0.011 |
| TCGGGTATGT | 0.977 ± 0.029 |
| TTAAACGGAC | 1.36 ± 0.021 |
| CGTGGATAGC | 1.02 ± 0.055 |

| Sequence | switch fluorescence ratio |
| --- | --- |
| ATGGAGGGGG | 1.02 ± 0.047 |
| CTCCGTTAGT | 3.1 ± 0.065 |
| CTAGACAGTT | 0.997 ± 0.02 |
| TGCTTTACGC | 1.03 ± 0.03 |
| CAGGGCGGAA | 1.02 ± 0.019 |
| AGGGAGTAGG | 1.12 ± 0.029 |
| AGTGGAATGC | 1.12 ± 0.032 |
| ATTAAGGCAA | 1.1 ± 0.014 |
| CTGTGATACT | 2.93 ± 0.22 |
| CGCTGAAAGG | 1.02 ± 0.026 |
| TTTTTATATT | 1.21 ± 0.44 |
| TTTCACACGG | 1.04 ± 0.066 |
| CGGTTTTAAT | 0.99589 ± 0.00077 |
| AGGGAAAAAT | 1.06 ± 0.082 |
| GGGGCGGGCA | 1.03 ± 0.043 |
| TTATCGGTGT | 0.968 ± 0.038 |
| TAATACTCCT | 2.05 ± 0.073 |
| TGCAGTATGG | 0.997 ± 0.019 |
| ACGATGACAC | 1.289 ± 0.0018 |
| TATTTAGAAG | 1.02 ± 0.054 |
| GGGTGGTGGA | 1.01 ± 0.019 |
| CGGGATGCCT | 1 ± 0.021 |
| TGTTCGGGAT | 0.977 ± 0.01 |

| Sequence | switch fluorescence ratio |
| --- | --- |
| CTGTTAGGGG | 0.967 ± 0.03 |
| TCTGTATTCG | 1.005 ± 0.0033 |
| TTGGTAAAAG | 1.02 ± 0.033 |
| AATAGGGTGT | 1.07 ± 0.046 |
| TGTTTAACAT | 0.981 ± 0.035 |
| GTTTAGGGTA | 1.01 ± 0.051 |
| AAACGCCTTA | 1.03 ± 0.015 |
| AACTATCTTT | 1.04 ± 0.033 |
| ATGGGTCAGT | 0.9872 ± 0.0044 |
| ATAGTTTGAT | 1.01 ± 0.022 |
| GCGGTAGCAT | 1.02 ± 0.012 |
| GGTTTTTCGG | 1.04 ± 0.014 |
| CGGAAGTTGG | 0.996 ± 0.02 |
| AGTCCGGGGT | 1.04 ± 0.025 |
| TAGCTGGGGA | 1.01 ± 0.033 |
| ACGAGGCTCA | 1.062 ± 0.0068 |
| GTTGGATAGG | 1.01 ± 0.016 |
| GGAAAATCAA | 0.9812 ± 0.0078 |
| GAAGAAGGTG | 1.43 ± 0.018 |
